# US20160046705A1 (Amgen, published 2016)
# B1: 20C3 (antibody, V domains shown)
# VH: QVQLQESGPGLVKPSETLSLTCTVSGGSISSYYWSWIRQPPGKGLEWIGYISDSGSTNYNPSLKSRIPISVDTSKNQFSLKLSSVTAADTAVYYCARWQLAHDAFDIWGQGTMVTVSS
# VL: QSALTQPASVSGSPGQSITISCTGTSSDVGGYNYVSWYQQHPGKAPKLMIYEVSYRPSGVSNRFSGSKSGSTASLTISGLQPEDEADYYCSSYAISSTLVFGGGTKMTVL
# notes: Parental anti-sclerostin antibody, described as directed against the loop 2 region of sclerostin
# B2: 27H6 (antibody, V domains shown)
# VH: EVQLVESGGGLVQPGGSLRLSCAASGFTFSSYSMNWVRQAPGKGLEWVSYISSSGSSIYYADSVKGRFTISRDNAKNSLYLQMNSLRDEDTAVYYCARERYYGDTPFDYWGQGTLVTVSS
# VL: DIVMTQTPLSLPVTPGEPASISCRSSQSLLNSVDGSTNLDWYLQKPGQSPQLLIYTLSYRASGVPDRFSGSGSGTDFTLKISRVEAEDVGVYYCMQRIEFPLTFGGGTKVEIK
# notes: also called sclerostin antibody 27H6
# Target: T1, human sclerostin (human, UniProt Q9BQB4 24-213, biotin-labeled (site not stated))
# T1 construct: also called biotin-labeled human sclerostin; SOST
# T1 sequence: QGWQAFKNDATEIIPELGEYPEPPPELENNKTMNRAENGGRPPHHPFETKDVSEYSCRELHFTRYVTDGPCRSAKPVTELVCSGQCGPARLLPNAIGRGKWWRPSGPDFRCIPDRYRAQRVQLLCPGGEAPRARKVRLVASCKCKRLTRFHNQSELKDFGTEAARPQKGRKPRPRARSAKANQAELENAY
# Experiment: competition alpha screen, increasing antibody against his-tagged LRP6 / biotin-labeled human sclerostin
row,Binder,binding result
1,B1,binds
2,B2,binds
